First the molecules themselves.
B1: Mutation 1-18 (antibody, mouse IgG2b, kappa, V domains shown)
VH: QVQLQQPGAELVRPGASVKLSCKASGTSFTNYWMNWVKQRPGQGLEWIGMIHPSDSETRINQKFKDKATLTVDKSSSTAYMQLSSLTAEDSAVYYCARSGDFYTSYFDYWGQGTTLTVSS
VL: DIQLTQSPASLSASVGETVTITCRGTGNIHNYLAWYQQKQGKSPQLLVYNAKTIADGVPSRFSGSGSGTQYSLKINSLQPEDFGSYYCQSFWSTYTFGGGTKLEIKR
B2: Mutation 1-31 (antibody, mouse IgG2b, kappa, V domains shown)
VH: QVQLQQPGAELVRPGASVKLSCKASGYSFTNYWMNWVKQRPGQGLEWIGMIHPSDSETRLNQKFKDKATLTVDKSSSTAYMQLSSLTAEDSAVYYCARSGDFYTYYFDYWGQGTTLTVSS
VL: DIQLTQSPASLSASVGETVTITCRGSGNIHNYLAWYQQKQGKSPQLLVYNAKTVADGVPSRFSGSGSGTQYSLKINSLQPEDFGSYYCQTFWSTYTFGGGTKLEIKR
B3: Mutation 1-22 (antibody, mouse IgG2b, kappa, V domains shown)
VH: QVQLQQPGAELVRPGASVKLSCKASGSSFTNYWMNWVKQRPGQGLEWIGMIHPSESETRLNQKFKDKATLTVDKSSSTAYMQLSSLTAEDSAVYYCARSGEFYTYYFDYWGQGTTLTVSS
VL: DIQLTQSPASLSASVGETVTITCRGTGNLHNYLAWYQQKQGKSPQLLVYNARTLADGVPSRFSGSGSGTQYSLKINSLQPEDFGSYYCQTFWSTYTFGGGTKLEIKR
B4: Mutation 1-27 (antibody, mouse IgG2b, kappa, V domains shown)
VH: QVQLQQPGAELVRPGASVKLSCKASGYSFTNYWMNWVKQRPGQGLEWIGMIHPSESETRINQKFKDKATLTVDKSSSTAYMQLSSLTAEDSAVYYCAKSGEFYTSYFDYWGQGTTLTVSS
VL: DIQLTQSPASLSASVGETVTITCRGTGNVHNYLAWYQQKQGKSPQLLVYNARTLADGVPSRFSGSGSGTQYSLKINSLQPEDFGSYYCQSFWSTYTFGGGTKLEIKR
B5: Mutation 1-25 (antibody, mouse IgG2b, kappa, V domains shown)
VH: QVQLQQPGAELVRPGASVKLSCKASGTSFTNYWMNWVKQRPGQGLEWIGMIHPSDSETRLNQKFKDKATLTVDKSSSTAYMQLSSLTAEDSAVYYCAKSGDFYTYYFDYWGQGTTLTVSS
VL: DIQLTQSPASLSASVGETVTITCRGTGNLHNYLAWYQQKQGKSPQLLVYNAKTIADGVPSRFSGSGSGTQYSLKINSLQPEDFGSYYCQSFWSTYTFGGGTKLEIKR
B6: Mutation 1-37 (antibody, mouse IgG2b, kappa, V domains shown)
VH: QVQLQQPGAELVRPGASVKLSCKASGSSFTNYWMNWVKQRPGQGLEWIGMIHPSDSETRLNQKFKDKATLTVDKSSSTAYMQLSSLTAEDSAVYYCAKSGDFYTYYFDYWGQGTTLTVSS
VL: DIQLTQSPASLSASVGETVTITCRGTGNLHNYLAWYQQKQGKSPQLLVYNAKTIADGVPSRFSGSGSGTQYSLKINSLQPEDFGSYYCQYFWSTYTFGGGTKLEIKR
B7: Mutation 1-24 (antibody, mouse IgG2b, kappa, V domains shown)
VH: QVQLQQPGAELVRPGASVKLSCKASGSSFTNYWMNWVKQRPGQGLEWIGMIHPSDSETRINQKFKDKATLTVDKSSSTAYMQLSSLTAEDSAVYYCAKSGDFYTSYFDYWGQGTTLTVSS
VL: DIQLTQSPASLSASVGETVTITCRGSGNLHNYLAWYQQKQGKSPQLLVYNAKTLADGVPSRFSGSGSGTQYSLKINSLQPEDFGSYYCQTFWSTYTFGGGTKLEIKR
B8: Mutation 1-19 (antibody, mouse IgG2b, kappa, V domains shown)
VH: QVQLQQPGAELVRPGASVKLSCKASGYSFTNYWMNWVKQRPGQGLEWIGMIHPSDSETRLNQKFKDKATLTVDKSSSTAYMQLSSLTAEDSAVYYCARSGDFYTYYFDYWGQGTTLTVSS
VL: DIQLTQSPASLSASVGETVTITCRGSGNIHNYLAWYQQKQGKSPQLLVYNAKTLADGVPSRFSGSGSGTQYSLKINSLQPEDFGSYYCQYFWSTYTFGGGTKLEIKR
B9: Mutation 1-36 (antibody, mouse IgG2b, kappa, V domains shown)
VH: QVQLQQPGAELVRPGASVKLSCKASGTSFTNYWMNWVKQRPGQGLEWIGMIHPSDSETRINQKFKDKATLTVDKSSSTAYMQLSSLTAEDSAVYYCAKSGDFYTSYFDYWGQGTTLTVSS
VL: DIQLTQSPASLSASVGETVTITCRGSGNLHNYLAWYQQKQGKSPQLLVYNAKTVADGVPSRFSGSGSGTQYSLKINSLQPEDFGSYYCQSFWSTYTFGGGTKLEIKR
B10: Mutation 1-29 (antibody, mouse IgG2b, kappa, V domains shown)
VH: QVQLQQPGAELVRPGASVKLSCKASGSSFTNYWMNWVKQRPGQGLEWIGMIHPSESETRVNQKFKDKATLTVDKSSSTAYMQLSSLTAEDSAVYYCAKSGEFYTTYFDYWGQGTTLTVSS
VL: DIQLTQSPASLSASVGETVTITCRGTGNIHNYLAWYQQKQGKSPQLLVYNARTVADGVPSRFSGSGSGTQYSLKINSLQPEDFGSYYCQTFWSTYTFGGGTKLEIKR
B11: Mutation 1-23 (antibody, mouse IgG2b, kappa, V domains shown)
VH: QVQLQQPGAELVRPGASVKLSCKASGYSFTNYWMNWVKQRPGQGLEWIGMIHPSESETRVNQKFKDKATLTVDKSSSTAYMQLSSLTAEDSAVYYCARSGEFYTTYFDYWGQGTTLTVSS
VL: DIQLTQSPASLSASVGETVTITCRGSGNLHNYLAWYQQKQGKSPQLLVYNARTVADGVPSRFSGSGSGTQYSLKINSLQPEDFGSYYCQSFWSTYTFGGGTKLEIKR
B12: Mutation 1-33 (antibody, mouse IgG2b, kappa, V domains shown)
VH: QVQLQQPGAELVRPGASVKLSCKASGTSFTNYWMNWVKQRPGQGLEWIGMIHPSESETRINQKFKDKATLTVDKSSSTAYMQLSSLTAEDSAVYYCARSGEFYTSYFDYWGQGTTLTVSS
VL: DIQLTQSPASLSASVGETVTITCRGSGNVHNYLAWYQQKQGKSPQLLVYNARTLADGVPSRFSGSGSGTQYSLKINSLQPEDFGSYYCQTFWSTYTFGGGTKLEIKR
B13: Mutation 1-38 (antibody, mouse IgG2b, kappa, V domains shown)
VH: QVQLQQPGAELVRPGASVKLSCKASGYSFTNYWMNWVKQRPGQGLEWIGMIHPSDSETRVNQKFKDKATLTVDKSSSTAYMQLSSLTAEDSAVYYCAKSGDFYTTYFDYWGQGTTLTVSS
VL: DIQLTQSPASLSASVGETVTITCRGSGNVHNYLAWYQQKQGKSPQLLVYNAKTLADGVPSRFSGSGSGTQYSLKINSLQPEDFGSYYCQTFWSTYTFGGGTKLEIKR
B14: Mutation 1-26 (antibody, mouse IgG2b, kappa, V domains shown)
VH: QVQLQQPGAELVRPGASVKLSCKASGYSFTNYWMNWVKQRPGQGLEWIGMIHPSDSETRVNQKFKDKATLTVDKSSSTAYMQLSSLTAEDSAVYYCAKSGDFYTTYFDYWGQGTTLTVSS
VL: DIQLTQSPASLSASVGETVTITCRGSGNVHNYLAWYQQKQGKSPQLLVYNAKTVADGVPSRFSGSGSGTQYSLKINSLQPEDFGSYYCQYFWSTYTFGGGTKLEIKR
B15: Mutation 1-34 (antibody, mouse IgG2b, kappa, V domains shown)
VH: QVQLQQPGAELVRPGASVKLSCKASGYSFTNYWMNWVKQRPGQGLEWIGMIHPSESETRLNQKFKDKATLTVDKSSSTAYMQLSSLTAEDSAVYYCARSGEFYTYYFDYWGQGTTLTVSS
VL: DIQLTQSPASLSASVGETVTITCRGTGNLHNYLAWYQQKQGKSPQLLVYNARTVADGVPSRFSGSGSGTQYSLKINSLQPEDFGSYYCQSFWSTYTFGGGTKLEIKR
B16: Mutation 1-32 (antibody, mouse IgG2b, kappa, V domains shown)
VH: QVQLQQPGAELVRPGASVKLSCKASGTSFTNYWMNWVKQRPGQGLEWIGMIHPSDSETRVNQKFKDKATLTVDKSSSTAYMQLSSLTAEDSAVYYCARSGDFYTTYFDYWGQGTTLTVSS
VL: DIQLTQSPASLSASVGETVTITCRGTGNVHNYLAWYQQKQGKSPQLLVYNAKTIADGVPSRFSGSGSGTQYSLKINSLQPEDFGSYYCQSFWSTYTFGGGTKLEIKR
B17: Mutation 1-20 (antibody, mouse IgG2b, kappa, V domains shown)
VH: QVQLQQPGAELVRPGASVKLSCKASGSSFTNYWMNWVKQRPGQGLEWIGMIHPSDSETRVNQKFKDKATLTVDKSSSTAYMQLSSLTAEDSAVYYCARSGDFYTTYFDYWGQGTTLTVSS
VL: DIQLTQSPASLSASVGETVTITCRGTGNVHNYLAWYQQKQGKSPQLLVYNAKTVADGVPSRFSGSGSGTQYSLKINSLQPEDFGSYYCQTFWSTYTFGGGTKLEIKR
B18: Mutation 1-35 (antibody, mouse IgG2b, kappa, V domains shown)
VH: QVQLQQPGAELVRPGASVKLSCKASGSSFTNYWMNWVKQRPGQGLEWIGMIHPSESETRVNQKFKDKATLTVDKSSSTAYMQLSSLTAEDSAVYYCARSGEFYTTYFDYWGQGTTLTVSS
VL: DIQLTQSPASLSASVGETVTITCRGSGNLHNYLAWYQQKQGKSPQLLVYNARTIADGVPSRFSGSGSGTQYSLKINSLQPEDFGSYYCQYFWSTYTFGGGTKLEIKR
B19: Mutation 1-28 (antibody, mouse IgG2b, kappa, V domains shown)
VH: QVQLQQPGAELVRPGASVKLSCKASGTSFTNYWMNWVKQRPGQGLEWIGMIHPSESETRLNQKFKDKATLTVDKSSSTAYMQLSSLTAEDSAVYYCAKSGEFYTYYFDYWGQGTTLTVSS
VL: DIQLTQSPASLSASVGETVTITCRGSGNIHNYLAWYQQKQGKSPQLLVYNARTIADGVPSRFSGSGSGTQYSLKINSLQPEDFGSYYCQYFWSTYTFGGGTKLEIKR
B20: Mutation 1-21 (antibody, mouse IgG2b, kappa, V domains shown)
VH: QVQLQQPGAELVRPGASVKLSCKASGTSFTNYWMNWVKQRPGQGLEWIGMIHPSESETRINQKFKDKATLTVDKSSSTAYMQLSSLTAEDSAVYYCARSGEFYTSYFDYWGQGTTLTVSS
VL: DIQLTQSPASLSASVGETVTITCRGSGNVHNYLAWYQQKQGKSPQLLVYNARTIADGVPSRFSGSGSGTQYSLKINSLQPEDFGSYYCQYFWSTYTFGGGTKLEIKR
B21: Mutation 1-30 (antibody, mouse IgG2b, kappa, V domains shown)
VH: QVQLQQPGAELVRPGASVKLSCKASGSSFTNYWMNWVKQRPGQGLEWIGMIHPSDSETRINQKFKDKATLTVDKSSSTAYMQLSSLTAEDSAVYYCARSGDFYTSYFDYWGQGTTLTVSS
VL: DIQLTQSPASLSASVGETVTITCRGTGNIHNYLAWYQQKQGKSPQLLVYNAKTLADGVPSRFSGSGSGTQYSLKINSLQPEDFGSYYCQYFWSTYTFGGGTKLEIKR

The target of this test is Pan-species-specific antigen Plasmodium Lactate DeHydrogenase (Pan-PLDH) protein. In words: indirect ELISA at four coating concentrations, KD calculated from half-maximal OD.
Consider B1, for which the Kd was 0.567 nM.
The value for B2 was 0.514 nM; that for B3 was 0.378 nM.
On to B4, for which the Kd was 0.427 nM.
The value for B5 was 0.493 nM.
As to B6, the Kd was 0.52 nM.
The value for B7 was 0.402 nM; that for B8 was 0.329 nM.
Take B9: the Kd is 0.518 nM.
The value for B10 was 0.411 nM.
In the case of B11, the Kd was 0.319 nM.
Consider B12, for which the equilibrium dissociation constant (Kd) is 0.372 nM.
For B13, the Kd was 0.613 nM.
Take B14: the Kd was 0.374 nM.
In the case of B15, the Kd is 0.565 nM.
On to B16, for which the Kd was 0.329 nM.
In the case of B17, the Kd is 0.204 nM.
The value for B18 was 0.424 nM; that for B19 was 0.759 nM; that for B20 was 0.655 nM.
As for B21, the Kd is 0.198 nM.
